The target of one data set is T1, MavRel ACT domain (Mycobacterium avium, UniProt A0ACG7XC01).
T1 construct: gene relA
As to conditions: protein (dimer):valine 1:10 and 1:50; 50 mM Tris pH 8.5, 100 mM NaCl, 5% glycerol; 298 K; cleft at dimer interface.

The test system of data set [1] is MavRel TGS Y473W (Mycobacterium avium subsp. avium ATCC 25291). The experiment in a line: tryptophan fluorescence quenching. As to conditions: 50 mM Tris-HCl pH 8.5, 350 mM NaCl, 1 mM DTT; excitation 295 nm, emission 355 nm; temperature not stated.
Data set [2] deals with MavRel Y473W (full length) (Mycobacterium avium subsp. avium ATCC 25291). The experiment in a line: tryptophan fluorescence quenching. The settings on record: 50 mM Tris-HCl pH 8.5, 350 mM NaCl, 1 mM DTT; excitation 295 nm, emission 355 nm; temperature not stated.
The data set “SEC” deals with the molecule itself. The experiment in a line: SEC. For orientation: SEC sorts molecules by how far they enter the pores of the column.

Consider `CC(C)[C@H](N)C(=O)O` [valine], for which the chemical shift perturbation result at MavRel ACT domain was “indicates MavRel ACT:valine binding as well as a change in conformation”. A word on the Kd: it is the equilibrium constant for the complex coming apart. Lower therefore signals a tighter complex. With deacylated E. coli tRNA, the Kd in data set [1] worked out at 0.65 µM; in data set [2], 1.67 µM.

B1: MavRel_(1–444) (domain or fragment, Mycobacterium avium subsp. avium, UniProt A0ACG7XC01 1-444, looked up)
chain: MAEENSAAQALDAPAESPPNPVIETPEPPTESLKTSSSASRRVRARLARRMTAQRSTLNPVLEPLVAMHREIYPKANVQLLQRAFEVADQRHASQLRHSGDPYITHPLAVATILAELGMDTTTLVAALLHDTVEDTGYTLAQLSEEFGEEVGHLVDGVTKLDRVVLGSAAEGETIRKMITAMARDPRVLVIKVADRLHNMRTMRFLPPEKQARKARETLEVIAPLAHRLGMASVKWELEDLSFAILHPKKYDEIVRLVAGRAPSRDTYLAKVRAEIINTLNASKIKATVEGRPKHYWSIYQKMIVKGRDFDDIHDLVGIRILCDEIRDCYAAVGVVHSLWQPMAGRFKDYIAQPRYGVYQSLHTTVVGPEGKPLEVQIRTRDMHRTAEYGIAAHWRYKEAKGRNGVPHPHAAAEIDDMAWMRQLLDWQREAADPGEFLESLRYD
notes: The N-terminal His6 tag is stated for the parent relA construct in pET29b; also called MavRel NTD; N-terminal domain (NTD) of MavRel; source: E. coli C41(DE3), purified (Ni-NTA, SEC)
As a reminder, the stoichiometry N is the number of molecules, sites or subunits per partner or assembly. As for B1, in “SEC”, the “stoichiometry N” value turned out to be 2.

B2: MavRel_(51–444) (domain or fragment)
chain: MTAQRSTLNPVLEPLVAMHREIYPKANVQLLQRAFEVADQRHASQLRHSGDPYITHPLAVATILAELGMDTTTLVAALLHDTVEDTGYTLAQLSEEFGEEVGHLVDGVTKLDRVVLGSAAEGETIRKMITAMARDPRVLVIKVADRLHNMRTMRFLPPEKQARKARETLEVIAPLAHRLGMASVKWELEDLSFAILHPKKYDEIVRLVAGRAPSRDTYLAKVRAEIINTLNASKIKATVEGRPKHYWSIYQKMIVKGRDFDDIHDLVGIRILCDEIRDCYAAVGVVHSLWQPMAGRFKDYIAQPRYGVYQSLHTTVVGPEGKPLEVQIRTRDMHRTAEYGIAAHWRYKEAKGRNGVPHPHAAAEIDDMAWMRQLLDWQREAADPGEFLESLRYD
notes: source: E. coli C41(DE3), purified (Ni-NTA, SEC)
Consider B2, for which the “stoichiometry N” value in “SEC” was determined as 2.

Source of the values: paper PMC12561398, “The N-Terminal Extension of the Mycobacterium avium Rel Protein Is a Dual Regulator of the Bifunctional Enzyme and Represents a Novel Target” (Antibiotics, 2025).
